Experiment [1] deals with human IL-2 receptor chain beta (IL-2Rβ, CD122) (human) (UniProt P14784).
Experiment [2] shares this target. Put plainly: BLI; human IL-2Rβ immobilised; Neo-2/15 WT at 20–2.5 nM. Background: In BLI a coated tip is dipped into the sample, and binding shifts an interference pattern.

human IL-2 receptor chain beta (IL-2Rβ, CD122) (human), sequence (P14784 27-551): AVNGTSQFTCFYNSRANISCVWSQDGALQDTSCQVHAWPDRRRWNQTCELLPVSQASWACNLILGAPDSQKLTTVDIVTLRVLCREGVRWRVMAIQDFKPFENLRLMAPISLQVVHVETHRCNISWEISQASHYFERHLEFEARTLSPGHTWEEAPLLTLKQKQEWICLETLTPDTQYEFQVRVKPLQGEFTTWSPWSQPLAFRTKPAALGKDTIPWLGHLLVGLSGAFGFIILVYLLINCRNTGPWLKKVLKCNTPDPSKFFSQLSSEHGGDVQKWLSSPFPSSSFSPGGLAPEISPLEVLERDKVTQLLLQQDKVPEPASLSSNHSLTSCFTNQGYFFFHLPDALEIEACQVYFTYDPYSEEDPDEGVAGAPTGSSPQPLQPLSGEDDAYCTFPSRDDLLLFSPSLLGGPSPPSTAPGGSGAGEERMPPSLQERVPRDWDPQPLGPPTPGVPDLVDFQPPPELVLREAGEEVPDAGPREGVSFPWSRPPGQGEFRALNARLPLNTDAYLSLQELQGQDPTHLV

In general, Kd refers to the equilibrium constant for the complex coming apart. The low end stands for tighter binding, the high end for weaker binding. Take “neoleukin-2/15 (Neo-2/15) WT (designed binder)”: in experiment [1], the EC50 of STAT5 phosphorylation (pSTAT5) in purified splenic T cells of balb-c mice, ex vivo, serial dilutions came to 4.1 pM. The substance further had a dissociation constant (Kd) in experiment [2] of 2.5 nM.

(Values after publication PMC12087824.)
